Measurements published in the Human Domainome abundance scans (Beltran et al. 2025).
± gives the uncertainty stated by the source.

B1: Myocardin-related transcription factor A, residues 341 to 383; numbered along this chain, Q969V6 (parent)
chain: GALPANLDDMKVAELKQELKLRSLPVSGTKTELIERLRAYQDQ

Variants of: B1
Experiment: abundance fitness (aPCA) (normalised: wild type 0, dead -1); higher = more abundant; growth selection in yeast, the domain comes from the species named
Conditions: Homo sapiens

| Variant | abundance fitness |
| --- | --- |
| GALPSNLDDMKVAELKQELKLRSLPVSGTKTELIERLRAYQDQ | -0.107 ± 0.073 |
| GALPMNLDDMKVAELKQELKLRSLPVSGTKTELIERLRAYQDQ | 0.292 ± 0.07 |
| GALPRNLDDMKVAELKQELKLRSLPVSGTKTELIERLRAYQDQ | 0.064 ± 0.068 |
| GALPQNLDDMKVAELKQELKLRSLPVSGTKTELIERLRAYQDQ | -0.025 ± 0.099 |
| GALPTNLDDMKVAELKQELKLRSLPVSGTKTELIERLRAYQDQ | 0.185 ± 0.069 |
| GALPLNLDDMKVAELKQELKLRSLPVSGTKTELIERLRAYQDQ | 0.045 ± 0.071 |
| GALPNNLDDMKVAELKQELKLRSLPVSGTKTELIERLRAYQDQ | 0.215 ± 0.088 |
| GALPWNLDDMKVAELKQELKLRSLPVSGTKTELIERLRAYQDQ | -0.655 ± 0.085 |
| GALPKNLDDMKVAELKQELKLRSLPVSGTKTELIERLRAYQDQ | 0.109 ± 0.097 |
| GALPENLDDMKVAELKQELKLRSLPVSGTKTELIERLRAYQDQ | 0.216 ± 0.089 |
| GALPINLDDMKVAELKQELKLRSLPVSGTKTELIERLRAYQDQ | 0.249 ± 0.14 |
| GALPPNLDDMKVAELKQELKLRSLPVSGTKTELIERLRAYQDQ | -0.845 ± 0.077 |
| GALPGNLDDMKVAELKQELKLRSLPVSGTKTELIERLRAYQDQ | 0.081 ± 0.059 |
| GLLPANLDDMKVAELKQELKLRSLPVSGTKTELIERLRAYQDQ | 0.208 ± 0.11 |
| GELPANLDDMKVAELKQELKLRSLPVSGTKTELIERLRAYQDQ | 0.136 ± 0.34 |
| GTLPANLDDMKVAELKQELKLRSLPVSGTKTELIERLRAYQDQ | 0.161 ± 0.16 |
| GDLPANLDDMKVAELKQELKLRSLPVSGTKTELIERLRAYQDQ | 0.26 ± 0.12 |
| GRLPANLDDMKVAELKQELKLRSLPVSGTKTELIERLRAYQDQ | 0.034 ± 0.12 |
| GQLPANLDDMKVAELKQELKLRSLPVSGTKTELIERLRAYQDQ | 0.34 ± 0.32 |
| GFLPANLDDMKVAELKQELKLRSLPVSGTKTELIERLRAYQDQ | 0.024 ± 0.15 |
| GGLPANLDDMKVAELKQELKLRSLPVSGTKTELIERLRAYQDQ | 0.035 ± 0.061 |
| GWLPANLDDMKVAELKQELKLRSLPVSGTKTELIERLRAYQDQ | -0.145 ± 0.1 |
| GCLPANLDDMKVAELKQELKLRSLPVSGTKTELIERLRAYQDQ | -0.077 ± 0.092 |
| GMLPANLDDMKVAELKQELKLRSLPVSGTKTELIERLRAYQDQ | 0.433 ± 0.09 |
| GSLPANLDDMKVAELKQELKLRSLPVSGTKTELIERLRAYQDQ | 0.209 ± 0.094 |
| GKLPANLDDMKVAELKQELKLRSLPVSGTKTELIERLRAYQDQ | 0.588 ± 0.2 |
| GPLPANLDDMKVAELKQELKLRSLPVSGTKTELIERLRAYQDQ | -0.041 ± 0.12 |

| Variant | abundance fitness |
| --- | --- |
| VALPANLDDMKVAELKQELKLRSLPVSGTKTELIERLRAYQDQ | -0.384 ± 0.17 |
| EALPANLDDMKVAELKQELKLRSLPVSGTKTELIERLRAYQDQ | -0.303 ± 0.12 |
| QALPANLDDMKVAELKQELKLRSLPVSGTKTELIERLRAYQDQ | -0.306 ± 0.088 |
| RALPANLDDMKVAELKQELKLRSLPVSGTKTELIERLRAYQDQ | -0.165 ± 0.16 |
| NALPANLDDMKVAELKQELKLRSLPVSGTKTELIERLRAYQDQ | -0.205 ± 0.11 |
| CALPANLDDMKVAELKQELKLRSLPVSGTKTELIERLRAYQDQ | -0.605 ± 0.17 |
| SALPANLDDMKVAELKQELKLRSLPVSGTKTELIERLRAYQDQ | -0.438 ± 0.44 |
| AALPANLDDMKVAELKQELKLRSLPVSGTKTELIERLRAYQDQ | -0.918 ± 0.12 |
| DALPANLDDMKVAELKQELKLRSLPVSGTKTELIERLRAYQDQ | -0.587 ± 0.09 |
| GAEPANLDDMKVAELKQELKLRSLPVSGTKTELIERLRAYQDQ | -0.019 ± 0.069 |
| GAFPANLDDMKVAELKQELKLRSLPVSGTKTELIERLRAYQDQ | 0.243 ± 0.084 |
| GACPANLDDMKVAELKQELKLRSLPVSGTKTELIERLRAYQDQ | 0.016 ± 0.083 |
| GAWPANLDDMKVAELKQELKLRSLPVSGTKTELIERLRAYQDQ | -0.122 ± 0.14 |
| GANPANLDDMKVAELKQELKLRSLPVSGTKTELIERLRAYQDQ | 0.128 ± 0.12 |
| GADPANLDDMKVAELKQELKLRSLPVSGTKTELIERLRAYQDQ | 0.512 ± 0.15 |
| GAAPANLDDMKVAELKQELKLRSLPVSGTKTELIERLRAYQDQ | -0.431 ± 0.061 |
| GAIPANLDDMKVAELKQELKLRSLPVSGTKTELIERLRAYQDQ | 0.144 ± 0.092 |
| GAMPANLDDMKVAELKQELKLRSLPVSGTKTELIERLRAYQDQ | -0.022 ± 0.098 |
| GAGPANLDDMKVAELKQELKLRSLPVSGTKTELIERLRAYQDQ | 0.028 ± 0.069 |
| GATPANLDDMKVAELKQELKLRSLPVSGTKTELIERLRAYQDQ | -0.598 ± 0.15 |
| GASPANLDDMKVAELKQELKLRSLPVSGTKTELIERLRAYQDQ | -0.031 ± 0.12 |
| GAHPANLDDMKVAELKQELKLRSLPVSGTKTELIERLRAYQDQ | 0.426 ± 0.1 |
| GAKPANLDDMKVAELKQELKLRSLPVSGTKTELIERLRAYQDQ | -0.171 ± 0.083 |
| GARPANLDDMKVAELKQELKLRSLPVSGTKTELIERLRAYQDQ | -0.021 ± 0.054 |
| GAYPANLDDMKVAELKQELKLRSLPVSGTKTELIERLRAYQDQ | 0.502 ± 0.15 |
| GAVPANLDDMKVAELKQELKLRSLPVSGTKTELIERLRAYQDQ | 0.073 ± 0.078 |
